From the array DNA melting data of Ke et al.

Assay: melting temperature; melt of duplexes
Details: sodium 0.0675 M; strand 1 µM

Substance	Tm
CGACGTGCTGGATGTGCTG+CAGCACATCTAGCACGTCG (((((((((.(((((((((+))))))))).)))))))))	60 °C
CGACGTGCATGATGTGCTG+CAGCACATTGCGCACGTCG ((((((((...((((((((+))))))))...))))))))	49.1 °C
CGACGTGCTACATGTGCTG+CAGCACATCCTGCACGTCG ((((((((...((((((((+))))))))...))))))))	48.3 °C
CGACGTGCTTGATGTGCTG+CAGCACATCGCGCACGTCG ((((((((..(((((((((+)))))))))..))))))))	54.3 °C
CGACGTGCGCAATGTGCTG+CAGCACATTCGGCACGTCG ((((((((..(((((((((+)))))))))..))))))))	52.5 °C
CGACGTGCCTCATGTGCTG+CAGCACATTTAGCACGTCG ((((((((...((((((((+))))))))...))))))))	47.5 °C
CGACGTGCATAATGTGCTG+CAGCACATCGCGCACGTCG ((((((((...((((((((+))))))))...))))))))	46.9 °C
CGACGTGCCGGATGTGCTG+CAGCACATTCTGCACGTCG ((((((((.(.((((((((+)))))))).).))))))))	52.3 °C
CGACGTGCAGGATGTGCTG+CAGCACATAGTGCACGTCG (((((((((..((((((((+))))))))..)))))))))	50.6 °C
CGACGTGCCGTATGTGCTG+CAGCACATAACGCACGTCG ((((((((..(((((((((+)))))))))..))))))))	52.6 °C
CGACGTGCATGATGTGCTG+CAGCACATGTTGCACGTCG (((((((((..((((((((+))))))))..)))))))))	52.2 °C
CGACGTGCATAATGTGCTG+CAGCACATAACGCACGTCG ((((((((.(.((((((((+)))))))).).))))))))	48.8 °C
CGACGTGCGGCATGTGCTG+CAGCACATGGCGCACGTCG (((((((((.(((((((((+))))))))).)))))))))	65.9 °C
CGACGTGCGACATGTGCTG+CAGCACATGGTGCACGTCG ((((((((..(((((((((+)))))))))..))))))))	57.3 °C
CGACGTGCATGATGTGCTG+CAGCACATTCGGCACGTCG ((((((((...((((((((+))))))))...))))))))	50.3 °C
CGACGTGCCCCATGTGCTG+CAGCACATTCAGCACGTCG ((((((((...((((((((+))))))))...))))))))	47.7 °C
CGACGTGCGGCATGTGCTG+CAGCACATTATGCACGTCG ((((((((...((((((((+))))))))...))))))))	49 °C
CGACGTGCTACATGTGCTG+CAGCACATGAAGCACGTCG (((((((((.(((((((((+))))))))).)))))))))	58.3 °C
CGACGTGCACTATGTGCTG+CAGCACATGTCGCACGTCG ((((((((...((((((((+))))))))...))))))))	46.4 °C
CGACGTGCTAGATGTGCTG+CAGCACATGCAGCACGTCG (((((((((..((((((((+))))))))..)))))))))	53 °C
CGACGTGCGATATGTGCTG+CAGCACATGCTGCACGTCG ((((((((...((((((((+))))))))...))))))))	49.8 °C
CGACGTGCTTGATGTGCTG+CAGCACATGGGGCACGTCG ((((((((...((((((((+))))))))...))))))))	50.7 °C
CGACGTGCCGGATGTGCTG+CAGCACATAGAGCACGTCG ((((((((...((((((((+))))))))...))))))))	50.2 °C
CGACGTGCTGCATGTGCTG+CAGCACATGGTGCACGTCG ((((((((..(((((((((+)))))))))..))))))))	54.2 °C
CGACGTGCATTATGTGCTG+CAGCACATCAAGCACGTCG ((((((((.(.((((((((+)))))))).).))))))))	48.1 °C
CGACGTGCTGTATGTGCTG+CAGCACATTCTGCACGTCG ((((((((.(.((((((((+)))))))).).))))))))	52 °C

Substance	Tm
CGACGTGCTCCATGTGCTG+CAGCACATGGGGCACGTCG ((((((((.((((((((((+)))))))))).))))))))	61.9 °C
CGACGTGCATGATGTGCTG+CAGCACATTTCGCACGTCG ((((((((...((((((((+))))))))...))))))))	48.7 °C
CGACGTGCATAATGTGCTG+CAGCACATAGTGCACGTCG (((((((((..((((((((+))))))))..)))))))))	48.7 °C
CGACGTGCCAGATGTGCTG+CAGCACATAGTGCACGTCG ((((((((...((((((((+))))))))...))))))))	45.6 °C
CGACGTGCTCTATGTGCTG+CAGCACATTCGGCACGTCG ((((((((...((((((((+))))))))...))))))))	48.7 °C
CGACGTGCTAGATGTGCTG+CAGCACATCTTGCACGTCG ((((((((.((((((((((+)))))))))).))))))))	58.7 °C
CGACGTGCTCTATGTGCTG+CAGCACATAGGGCACGTCG ((((((((.((((((((((+)))))))))).))))))))	58.4 °C
CGACGTGCCCAATGTGCTG+CAGCACATAAAGCACGTCG ((((((((...((((((((+))))))))...))))))))	50.1 °C
CGACGTGCGTGATGTGCTG+CAGCACATATCGCACGTCG (((((((((..((((((((+))))))))..)))))))))	54.6 °C
CGACGTGCACCATGTGCTG+CAGCACATGGCGCACGTCG ((((((((.((((((((((+)))))))))).))))))))	59.2 °C
CGACGTGCCAAATGTGCTG+CAGCACATCCGGCACGTCG (((((((((..((((((((+))))))))..)))))))))	53.3 °C
CGACGTGCTGTATGTGCTG+CAGCACATGCAGCACGTCG ((((((((((.((((((((+)))))))).))))))))))	60.3 °C
CGACGTGCTGTATGTGCTG+CAGCACATGCGGCACGTCG ((((((((.(.((((((((+)))))))).).))))))))	55.7 °C
CGACGTGCCAGATGTGCTG+CAGCACATCCGGCACGTCG (((((((((.(((((((((+))))))))).)))))))))	59.2 °C
CGACGTGCCGCATGTGCTG+CAGCACATTGAGCACGTCG ((((((((...((((((((+))))))))...))))))))	49.5 °C
CGACGTGCCAAATGTGCTG+CAGCACATACGGCACGTCG (((((((((..((((((((+))))))))..)))))))))	53.2 °C
CGACGTGCGAAATGTGCTG+CAGCACATAGGGCACGTCG ((((((((...((((((((+))))))))...))))))))	49.9 °C
CGACGTGCTTAATGTGCTG+CAGCACATGGTGCACGTCG ((((((((...((((((((+))))))))...))))))))	50.3 °C
CGACGTGCGCGATGTGCTG+CAGCACATGATGCACGTCG ((((((((...((((((((+))))))))...))))))))	51 °C
CGACGTGCAAGATGTGCTG+CAGCACATTAGGCACGTCG ((((((((...((((((((+))))))))...))))))))	51.3 °C
CGACGTGCAAGATGTGCTG+CAGCACATCGCGCACGTCG ((((((((..(((((((((+)))))))))..))))))))	58.4 °C
CGACGTGCCCTATGTGCTG+CAGCACATACCGCACGTCG ((((((((..(((((((((+)))))))))..))))))))	47.4 °C
CGACGTGCAGGATGTGCTG+CAGCACATAGAGCACGTCG ((((((((...((((((((+))))))))...))))))))	49.4 °C
CGACGTGCCGTATGTGCTG+CAGCACATCTCGCACGTCG ((((((((...((((((((+))))))))...))))))))	48.5 °C
CGACGTGCAAAATGTGCTG+CAGCACATCCGGCACGTCG ((((((((...((((((((+))))))))...))))))))	49.1 °C
CGACGTGCTCGATGTGCTG+CAGCACATCATGCACGTCG ((((((((..(((((((((+)))))))))..))))))))	54.1 °C
